Measured values taken from patent US20190359687A1 (Bayer, published 2019).

Key:
[1] = target: T1, human glycophorin A on human red blood cells or red blood cell membranes (human, UniProt P02724 20-150); assay: SPR (Biacore), Fab on human RBC membranes; T½ = 0.69/kd;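 for kd: human RBC membranes captured on an L1 sensor chip, Fab fragments passed over as analyte, binding kinetics read by surface plasmon resonance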;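 for koff: human RBC membranes captured on an L1 sensor chip, Fab fragments passed over as analyte, binding kinetics read by surface plasmon resonance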;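 for kon: human RBC membranes captured on an L1 sensor chip, Fab fragments passed over as analyte, binding kinetics read by surface plasmon resonance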
T1 construct: whole, on cells; also called hRBC; human RBC membranes
T1 sequence (looked up): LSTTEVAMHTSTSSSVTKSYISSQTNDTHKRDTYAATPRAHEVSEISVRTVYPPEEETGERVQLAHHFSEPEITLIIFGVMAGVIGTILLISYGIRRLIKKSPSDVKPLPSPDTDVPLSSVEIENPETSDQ
Procedure: (§1) Kinetic analysis of the antibody binding to human red blood cell membranes was also performed using surface plasmon resonance (SPR) using a Biacore instrument. In this assay membranes prepared from human red blood cells were attached to a L1 sensor matrix and antibodies were flowed over the RBC membranes.
(§2) The binding kinetics of the affinity matured Fab antibodies was also measured.

[2] = target: T1, human glycophorin A on human red blood …; assay: SPR (Biacore), Fab on human RBC membranes
Procedure: as §1, §2

[3] = target: T2, human glycophorin A in the red blood cell membrane (human, UniProt P02724 20-150); assay: FACS, RBC Hu02
T2 construct: whole, on cells; used for intact RBC, isolated RBC membranes and transfected cells; the assay field tells which; also called GPA; hGPA
T2 sequence (looked up): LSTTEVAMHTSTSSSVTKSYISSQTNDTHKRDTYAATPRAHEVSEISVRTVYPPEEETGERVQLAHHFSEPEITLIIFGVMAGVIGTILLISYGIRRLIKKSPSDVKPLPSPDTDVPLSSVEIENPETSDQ
Procedure: (§3) The binding of the humanized variants to intact red blood cells (RBC) from humans (Hu01 to 03; 3 individuals), Rhesus monkey (Rh01 to 03; 3 individuals) and Cynomolgus monkey (Cy01 to 02; 2 individuals) was measured by fluorescence activated cell sorting (FACS).

[4] = target: T3, purified human glycophorin A protein (Sigma, cat # G5017) (human, UniProt P02724 20-150); assay: ELISA, IgG
T3 construct: mature; also called Sigma hGPA; Sigma GPA
T3 sequence (looked up): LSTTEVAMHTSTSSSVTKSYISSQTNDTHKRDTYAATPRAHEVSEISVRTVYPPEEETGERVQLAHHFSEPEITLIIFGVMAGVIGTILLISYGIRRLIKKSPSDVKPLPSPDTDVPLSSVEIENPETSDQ

[5] = target: T2, human glycophorin A in the red blood …; assay: FACS, RBC Hu03
Procedure: as §3

[6] = target: T4, Rhesus monkey glycophorin A on Rhesus monkey red blood cells (Rhesus monkey, UniProt A0A1D5Q349 20-150); assay: FACS, RBC Rh03
T4 construct: whole, on cells; also called Rhesus RBC; monkey GPA
T4 sequence: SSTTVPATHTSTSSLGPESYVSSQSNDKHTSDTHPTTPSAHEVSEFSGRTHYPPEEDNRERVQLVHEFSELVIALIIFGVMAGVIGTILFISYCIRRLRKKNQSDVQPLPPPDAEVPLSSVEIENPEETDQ
Procedure: as §3

[7] = target: T4, Rhesus monkey glycophorin A on Rhesus …; assay: FACS, RBC Rh01
Procedure: as §3

[8] = target: T5, Cynomolgus monkey glycophorin A on Cynomolgus monkey red blood cells (Cynomolgus monkey); assay: FACS, RBC Cy02
T5 construct: whole, on cells; also called Cyno RBC; Cyno GPA
Procedure: as §3

[9] = target: T4, Rhesus monkey glycophorin A on Rhesus …; assay: FACS, RBC Rh02
[10] = target: T5, Cynomolgus monkey glycophorin A on …; assay: FACS, RBC Cy01
Procedure: as §3

[11] = target: T2, human glycophorin A in the red blood …; assay: FACS, RBC Hu01
Procedure: as §3

B1: TPP-7777, affinity matured 6C12 Fab (Fab, V domains shown)
VH: EVQLVQSGAEVKKPGASVKVSCKASGYTFTTYTIHWVRQAPGQGLEWMGYINPSSGWTRYNPKFKGRVTMTRDKSTSTAYMELRSLRSDDTAVYYCWTGRRDYWGQGTTVTVSS
VL: DIQLTQSPSFLSASVGDRVTITCRASSSVSYIYWFQQKPGKAPKLLIYATSTRQSGVPSRFSGSGSGTEYTLTISSLQPEDFATYYCHQRNSFPYTFGQGTKLEIK
notes: Tested as Fab
Estimated T½ [1]: 31 min | Kd [2]: 0.0499 nM | koff [2]: 0.000371 s⁻¹ | kon [2]: 7.44e+06 M⁻¹ s⁻¹

B2: TPP-7787, affinity matured 6C12 Fab (Fab, V domains shown)
VH: EVQLVQSGAEVKKPGASVKVSCKASGYTFTTYAIHWVRQAPGQGLEWMGYINPSSGYTRYNPKFKGRVTMTRDKSTSTAYMELRSLRSDDTAVYYCWTGTRDYWGQGTTVTVSS
VL: DIQLTQSPSFLSASVGDRVTITCRASSSVSYIYWFQQKPGKAPKLLIYATSTRQSGVPSRFSGSGSGTEYTLTISSLQPEDFATYYCHQRNSFPYTFGQGTKLEIK
notes: Tested as Fab
Estimated T½ [1]: 83 min | Kd [2]: 0.0222 nM | koff [2]: 0.000139 s⁻¹ | kon [2]: 6.25e+06 M⁻¹ s⁻¹

B3: Hu6C12-20 (antibody, V domains shown)
VH: EVQLVQSGAEVKKPGASVKVSCKASGYTFTTYTIHWVRQAPGQGLEWMGYINPSSDYTRYNPKFKDRVTMTTDTSTSTAYMELRSLRSDDTAVYYCQTGTRDYWGQGTTVTVSS
VL: DIQLTQSPSFLSASVGDRVTITCSAASSVSYIYWFQQKPGKAPKLLIYSTSTLPSGVPSRFSGSGSGTEYTLTISSLQPEDFATYYCHQRNSFPFTFGQGTKLEIK
notes: IgG format; VH.1c + Vk.1b
fluorescence intensity [3]: 1300 | EC50 [4]: 0.393 nM | fluorescence intensity [5]: 1460 | fluorescence intensity [6]: 1550 | fluorescence intensity [7]: 1670 | fluorescence intensity [8]: 1250 | fluorescence intensity [9]: 1620 | fluorescence intensity [10]: 1070 | fluorescence intensity [11]: 1670

B4: Hu6C12-22 (antibody, V domains shown)
VH: EVQLVQSGAEVKKPGASVKVSCKASGYTFTTYTIHWVRQAPGQGLEWMGYINPSSDYTRYNPKFKDRVTLTTDTSTSTAYMELRSLRSDDTAVYYCATGTRDYWGQGTTVTVSS
VL: DIQLTQSPSFLSASVGDRVTITCSAASSVSYIYWFQQKPGKAPKLLIYSTSTLPSGVPSRFSGSGSGTEYTLTISSLQPEDFATYYCHQRNSFPFTFGQGTKLEIK
notes: IgG format; VH.1e + Vk.1b
fluorescence intensity [3]: 1170 | EC50 [4]: 0.886 nM | fluorescence intensity [5]: 1330 | fluorescence intensity [6]: 1450 | fluorescence intensity [7]: 1530 | fluorescence intensity [8]: 1170 | fluorescence intensity [9]: 1490 | fluorescence intensity [10]: 991 | fluorescence intensity [11]: 1570

B5: Hu6C12-23 (antibody, V domains shown)
VH: EVQLVQSGAEVKKPGASVKVSCKASGYTFTTYTIHWVRQAPGQGLEWMGYINPSSDYTRYNPKFKDRVTLTTDTSTSTAYMELRSLRSDDTAVYYCQTGTRDYWGQGTTVTVSS
VL: DIQLTQSPSFLSASVGDRVTITCSAASSVSYIYWFQQKPGKAPKLLIYSTSTLPSGVPSRFSGSGSGTEYTLTISSLQPEDFATYYCHQRNSFPFTFGQGTKLEIK
notes: IgG format; VH.1f + Vk.1b
fluorescence intensity [3]: 1300 | EC50 [4]: 0.374 nM | fluorescence intensity [5]: 1460 | fluorescence intensity [6]: 1700 | fluorescence intensity [7]: 1710 | fluorescence intensity [8]: 1320 | fluorescence intensity [9]: 1680 | fluorescence intensity [10]: 1140 | fluorescence intensity [11]: 1680

B6: Hu6C12-24 (antibody, V domains shown)
VH: EVQLVQSGAEVKKPGASVKVSCKASGYTFTTYTIHWVRQAPGQGLEWIGYINPSSDYTRYNPKFKDRVTLTTDKSTSTAYMELRSLRSDDTAVYYCQTGTRDYWGQGTTVTVSS
VL: DIQLTQSPSFLSASVGDRVTITCSAASSVSYIYWFQQKPGKAPKLLIYSTSTLPSGVPSRFSGSGSGTEYTLTISSLQPEDFATYYCHQRNSFPFTFGQGTKLEIK
notes: IgG format; VH.1g + Vk.1b
fluorescence intensity [3]: 1850 | EC50 [4]: 0.282 nM | fluorescence intensity [5]: 2100 | fluorescence intensity [6]: 2370 | fluorescence intensity [7]: 2330 | fluorescence intensity [8]: 1770 | fluorescence intensity [9]: 2540 | fluorescence intensity [10]: 1660 | fluorescence intensity [11]: 2250
